Data reported in US20160271157A1, “BETA-CATENIN” (UCL BUSINESS PLC, priority 2013, published 2016).

What was measured:
[1] = tested on: β-catenin translocation to the nucleus; assay: β-catenin immunocytochemistry and nuclear co-localization analysis, PC3; assay type: cell-based; settings: for Pearson coefficient of nuclear co-localization of β-catenin / expression of β-catenin (immunofluorescence), visible in the nucleus: PC3 cells; for Pearson coefficient of nuclear co-localization of β-catenin: Wnt 100 ng/ml vs control, p<0.001 Mann Whitney test; for expression of β-catenin (immunofluorescence), visible in the nucleus: Wnt ligand 100 ng/ml vs vehicle
Protocol: Immunostaining was performed in two different laboratories, independently with the experimenter blind to the identity of the treatment. Either cells used in FluoroDish, post [Ca^2+]i experiments using dyes (see above) or grown in 8 well chamber glass slides (Lab Tek II, Nunc) were used. For Wnt ligand treatment, the culture medium replaced with PBS (without calcium) at 37° C. The experiments were replicated for Wnt ligand or vehicle control as described for [Ca^2+]i measurements. Briefly, Wnt ligands were added and chamber slides incubated at 37° C. for up to 20 min. Chamber wells were washed 3× with 0.5 ml PBS and cells were fixed with 0.5 ml 4% formalin for 30 min at 4° C. Cells were washed 3× with ice cold PBS and stored in 0.5 ml PBS at 4° C. for immunostaining. In some experiments PC3 cells were treated with thaspsigargin as described above.
For immunostaining cells were washed twice for 5 minutes in TBST (20 mM Tris pH 7.4, 0.9% NaCl, 0.1% Tween 20, Sigma). Cells were then incubated in 20% normal goat serum (NGS)/TBST for 30 min at room temperature, the chambers were drained and cells were incubated with mouse anti-β-catenin (ab22656, Abcam, UK) at 1:500 dilution in NGS/TBST overnight at 4° C. Following two further 5 min washes in TBST sections were incubated in goat anti-mouse peroxidase fab (Abcam, UK) at 1:500 dilution for 30 min at room temperature. Following a further two 5 min washes in TBST cells were incubated with tyramide Cy3 (Perkin Elmer) for 10 min at room temperature. Sections were washed twice for 5 min in TBST before nuclear counterstaining with DAPI. After a final two 5 min washes, the chambers were removed and cover slip placed on slides using Permafluor (Thermo Shandon).
Fluorescence immunocytochemical staining for β-catenin expression in cell lines was imaged using Olympus Fluoview 1000 Confocal Microscope (Olympus KeyMed) mounted on an Olympus IX81 inverted microscope using a 20×0.7 NA or 40×1.0 NA dry objective with a zoom of ×3.4′,6-diamidino-2-phenylindole (DAPI, nuclear counterstain) was excited at 405 nm with an emission of 415-500 nm; Cy3 (β-catenin label) signal was excited at 561 nm with an emission spectrum between 570-670 nm. […] Z-stacks of at least 3 fields per sample were imaged and saved in Olympus FV (OIF or OIB) file format.
Nuclear co-localization of β-catenin was calculated by importing FV files for untreated, control or treated cells, into colocalization plugin of Fiji software (http://fiji.sc/Fiji) for Cy3 (β-catenin) and DAPI (nuclear) signals. Pearson co-relation of colocalization were tabulated for 25-90 cells (from 2-5 different passages of cells) using ROI analysis. Statistical significance between untreated and treated cells was calculated using Mann Whitney U test.

[2] = tested on: MCF7 breast cancer cell line; assay: Live [Ca2+]i imaging after addition of Wnt ligand, MCF7; assay type: cell-based, human; settings: MCF7 cells
Protocol: (§1) The imaging protocol was developed in the inventor's laboratory and has been described in detail, elsewhere (Wang at al., (2010) PLoS ONE 5, e10456). Briefly, 100000-200000 PC3, MCF7, 253J or Cos 7 cells were plated on 35 mm FluoroDish (WPI) and grown for 48 h; calcium indicators Fluo-4 (Invitrogen) and FuraRed (Invitrogen) at 1 ng/ml were added to FluoroDish containing only 1 ml of culture medium and incubated for 15-20 min at 37° C. The culture medium was removed and washed (×2) and replaced with 1 ml PBS. Live cell calcium Imaging was performed on an Olympus FluoView FV 1000 confocal microscope (Olympus […]) equipped with a 20× dry objective (numerical aperture=0.75). Calcium indicators were excited with an argon laser line (488 nm) and emissions recorded in the green channel (500-560 nm) for Fluo-4 and red channel (600-700 nm) for FuraRed after addition of vehicle control (PBS) or Wnt X (30-600 ng/ml). Images were acquired every 1.1 or 2.2 seconds for up to 600-800s; image and data acquisition was performed using FluoView 1000 software (Olympus, UK). Fluorescent intensity was measured and data exported as a tab delimited file for further analysis using a spreadsheet. All imaging experiments were performed in duplicate; intracellular calcium at 100 ng/ml was measured in at least 3-12 different passages (passage numbers 25 to 37) of cell line for each Wnt ligand. Wnt 11 was tested in at least 5 different passages at 3 different concentrations. […] The measurements were exported as a tab delimited file into a spreadsheet for further analysis and Fluo4/Fura Red ratios were calculated. […] The time constants (rise, dwell and fall times) were calculated by first fitting the Fluo4/FuraRed ratio to a single Gaussian function (Origin Lab Corp., MA); a lower (10%) and upper (90%) amplitude thresholding method was then used to calculate the time constants (s). Statistical significance was calculated using Mann Whitney U test.

[3] = tested on: 253J urinary tract (bladder) cancer cell line; assay: Live [Ca2+]i imaging after addition of Wnt ligand, 253J; assay type: cell-based, human; settings: 253J cells
Protocol: as §1

Molecule | translocation of β-catenin into the nucleus after inhibition of Wnt induced [Ca2+]i release ([1]; PC3 cells incubated with thapsigargin) | [Ca2+]i release in response to Wnt ligand [2] | [Ca2+]i release in response to Wnt ligand [3] | Pearson coefficient of nuclear co-localization of β-catenin [1] | expression of β-catenin (immunofluorescence), visible in the nucleus [1]
C/C=C(/C)C(=O)O[C@H]1C(C)=C2[C@H]([C@@H]1OC(=O)CCCCCCC)[C@@](C)(OC(C)=O)C[C@H](OC(=O)CCC)[C@@]1(O)[C@H]2OC(=O)[C@@]1(C)O [thapsigargin, reference compound] | reduced the translocation of β-catenin into the nucleus | – | – | – | –
Wnt10B: Recombinant Wnt peptide purchased from R&D systems | – | activated [Ca^2+]i release | activated [Ca^2+]i release | significant increase | visibly increased
Wnt5A: Recombinant Wnt peptide purchased from R&D systems (protein, UniProt P41221 62-380, looked up) Protein Wnt-5a: IIGAQPLCSQLAGLSQGQKKLCHLYQDHMQYIGEGAKTGIKECQYQFRHRRWNCSTVDNTSVFGRVMQIGSRETAFTYAVSAAGVVNAMSRACREGELSTCGCSRAARPKDLPRDWLWGGCGDNIDYGYRFAKEFVDARERERIHAKGSYESARILMNLHNNEAGRRTVYNLADVACKCHGVSGSCSLKTCWLQLADFRKVGDALKEKYDSAAAMRLNSRGKLVQVNSRFNSPTTQDLVYIDPSPDYCVRNESTGSLGTQGRLCNKTSEGMDGCELMCCGRGYDQFKTVQTERCHCKFHWCCYVKCKKCTEIVDQFVCK | – | activated [Ca^2+]i release | activated [Ca^2+]i release | significant increase | visibly increased
Wnt9B: Recombinant Wnt peptide purchased from R&D systems (protein, UniProt O14905 23-357, looked up) Protein Wnt-9b: SYFGLTGREVLTPFPGLGTAAAPAQGGAHLKQCDLLKLSRRQKQLCRREPGLAETLRDAAHLGLLECQFQFRHERWNCSLEGRMGLLKRGFKETAFLYAVSSAALTHTLARACSAGRMERCTCDDSPGLESRQAWQWGVCGDNLKYSTKFLSNFLGSKRGNKDLRARADAHNTHVGIKAVKSGLRTTCKCHGVSGSCAVRTCWKQLSPFRETGQVLKLRYDSAVKVSSATNEALGRLELWAPARQGSLTKGLAPRSGDLVYMEDSPSFCRPSKYSPGTAGRVCSREASCSSLCCGRGYDTQSRLVAFSCHCQVQWCCYVECQQCVQEELVYTCKH | – | activated [Ca^2+]i release | activated [Ca^2+]i release | significant increase | visibly increased
